Laboratory results reported in article PMC5153249.
Where “and” joins values, the source holds several entries; their conditions need not be identical. Equal values may be shown once. Each block holds one substance with its values, some of them ahead of it.

What was measured:
[1] = biological target: 43S pre-initiation complex (40S, eIF1, eIF1A, ternary complex; no mRNA) (S. cerevisiae) (UniProt P32911); test: native gel or EMSA; gel shift monitoring [35S]-Met-tRNAi; 43S PICs without mRNA (1 µM eIF1, 1 µM eIF1A, 200 nM eIF2, 1 mM GDPNP•Mg2+, 2 nM Met-tRNAi, 30 nM 40S); eIF3 titrated 30-500 nM; 1X Recon buffer (30 mM HEPES-KOH pH 7.4, 100 mM KOAc, 3 mM Mg(OAc)2, 2 mM DTT), 26 °C, 2 h; apparent KD, Hill equation; single experiments; apparent affinities ≤ 30 nM likely upper limits
[2] = biological target: 48S pre-initiation complex (40S, eIF1, eIF1A, ternary complex, AUG-containing model mRNA) (S. cerevisiae) (UniProt P32911); test: native gel or EMSA; gel shift monitoring [35S]-Met-tRNAi; 48S PICs with 1 µM uncapped AUG-containing model mRNA (1 µM eIF1, 1 µM eIF1A, 200 nM eIF2, 1 mM GDPNP•Mg2+, 2 nM Met-tRNAi, 20 nM 40S); eIF3 titrated 30-500 nM; 1X Recon buffer, 26 °C, 2 h; apparent KD, Hill equation; single experiments; apparent affinities ≤ 30 nM likely upper limits
[3] = biological target: 43S pre-initiation complex (40S ribosomal subunit, eIF1, eIF1A and eIF2•GDPNP•Met-tRNAi ternary complex); called 48S PIC when AUG-containing model mRNA is added (yeast) (UniProt P32911); test: native gel or EMSA; eIF3 (30-500 nM) titrated into 43S PICs without mRNA: 30 nM 40S, 1 µM eIF1, 1 µM eIF1A, 200 nM eIF2, 1 mM GDPNP•Mg2+, 2 nM [35S]-Met-tRNAi; 1X Recon buffer (30 mM HEPES-KOH pH 7.4, 100 mM KOAc pH 7.6, 3 mM Mg(OAc)2, 2 mM DTT); 26 °C, 2 h; apparent KD from a Hill fit, free eIF3 corrected for free …
[4] = biological target: 43S pre-initiation complex (40S ribosomal subunit, eIF1, eIF1A and eIF2•GDPNP•Met-tRNAi ternary complex); called 48S PIC when AUG-containing model mRNA is added (yeast) (UniProt P32911); test: native gel or EMSA; eIF3 (30-500 nM) titrated into 48S PICs: 1 µM uncapped AUG-containing model mRNA, 20 nM 40S, 1 µM eIF1, 1 µM eIF1A, 200 nM eIF2, 1 mM GDPNP•Mg2+, 2 nM [35S]-Met-tRNAi; 26 °C, 2 h; apparent KD from a Hill fit
[5] = biological target: 43S pre-initiation complex (40S ribosomal subunit, eIF1, eIF1A and eIF2•GDPNP•Met-tRNAi ternary complex); called 48S PIC when AUG-containing model mRNA is added (yeast) (UniProt P32911); test: other; 43S PIC, no mRNA
[6] = biological target: 48S pre-initiation complex (40S, eIF1, eIF1A, ternary complex, AUG-containing model mRNA) (S. cerevisiae) (UniProt P32911); test: other; 48S PIC, + mRNA
[7] = tested on: yeast 43S PIC: 40S+eIF1+eIF1A+eIF2 (Met-tRNAi TC); for mRNA recruitment also eIF5, eIF4A, eIF4B, eIF4E-eIF4G;eIF3 a/b/c sub-complex (Saccharomyces cerevisiae;Saccharomyces cerevisiae); test: EMSA; conditions: 30 mM HEPES-KOH pH 7.4, 100 mM KOAc, 3 mM Mg(OAc)2, 2 mM DTT, 1 mM GDPNP, 26 C, 2 h, native 4% THEM gel
[8] = tested on: yeast 43S PIC: 40S+eIF1+eIF1A+eIF2 (Met-tRNAi TC); for mRNA recruitment also eIF5, eIF4A, eIF4B, eIF4E-eIF4G;eIF3 (b prt1-1) (Saccharomyces cerevisiae;Saccharomyces cerevisiae); test: EMSA; conditions: 30 mM HEPES-KOH pH 7.4, 100 mM KOAc, 3 mM Mg(OAc)2, 2 mM DTT, 1 mM GDPNP, 26 C, 2 h, native 4% THEM gel
[9] = tested on: yeast 43S PIC: 40S+eIF1+eIF1A+eIF2 (Met-tRNAi TC); for mRNA recruitment also eIF5, eIF4A, eIF4B, eIF4E-eIF4G;eIF3 (b rnp1) (Saccharomyces cerevisiae;Saccharomyces cerevisiae); test: EMSA; conditions: 30 mM HEPES-KOH pH 7.4, 100 mM KOAc, 3 mM Mg(OAc)2, 2 mM DTT, 1 mM GDPNP, 26 C, 2 h, native 4% THEM gel
[10] = tested on: yeast 43S PIC: 40S+eIF1+eIF1A+eIF2 (Met-tRNAi TC); for mRNA recruitment also eIF5, eIF4A, eIF4B, eIF4E-eIF4G;eIF3 (a Box6) (Saccharomyces cerevisiae;Saccharomyces cerevisiae); test: EMSA; conditions: measurement 1; m7G cap; 30 mM HEPES-KOH pH 7.4, 100 mM KOAc, 3 mM Mg(OAc)2, 2 mM DTT, 1 mM GDPNP, 26 C, 2 h; native 4% THEM gel
[11] = tested on: yeast 43S PIC: 40S+eIF1+eIF1A+eIF2 (Met-tRNAi TC); for mRNA recruitment also eIF5, eIF4A, eIF4B, eIF4E-eIF4G;eIF3 (c GAP85) (Saccharomyces cerevisiae;Saccharomyces cerevisiae); test: EMSA; conditions: measurement 1; m7G cap; 30 mM HEPES-KOH pH 7.4, 100 mM KOAc, 3 mM Mg(OAc)2, 2 mM DTT, 1 mM GDPNP, 26 C, 2 h; native 4% THEM gel
[12] = tested on: yeast 43S PIC: 40S+eIF1+eIF1A+eIF2 (Met-tRNAi TC); for mRNA recruitment also eIF5, eIF4A, eIF4B, eIF4E-eIF4G;eIF3 (c Box12-SPW) (Saccharomyces cerevisiae;Saccharomyces cerevisiae); test: EMSA; conditions: measurement 1; m7G cap; 30 mM HEPES-KOH pH 7.4, 100 mM KOAc, 3 mM Mg(OAc)2, 2 mM DTT, 1 mM GDPNP, 26 C, 2 h; native 4% THEM gel
[13] = tested on: yeast 43S PIC: 40S+eIF1+eIF1A+eIF2 (Met-tRNAi TC); for mRNA recruitment also eIF5, eIF4A, eIF4B, eIF4E-eIF4G;eIF3 (g KLF) (Saccharomyces cerevisiae;Saccharomyces cerevisiae); test: EMSA; conditions: measurement 1; m7G cap; 30 mM HEPES-KOH pH 7.4, 100 mM KOAc, 3 mM Mg(OAc)2, 2 mM DTT, 1 mM GDPNP, 26 C, 2 h; native 4% THEM gel
[14] = tested on: yeast 43S PIC: 40S+eIF1+eIF1A+eIF2 (Met-tRNAi TC); for mRNA recruitment also eIF5, eIF4A, eIF4B, eIF4E-eIF4G;eIF3 (c delta60) (Saccharomyces cerevisiae;Saccharomyces cerevisiae); test: EMSA; conditions: measurement 1; m7G cap; 30 mM HEPES-KOH pH 7.4, 100 mM KOAc, 3 mM Mg(OAc)2, 2 mM DTT, 1 mM GDPNP, 26 C, 2 h; native 4% THEM gel
[15] = tested on: yeast 43S PIC: 40S+eIF1+eIF1A+eIF2 (Met-tRNAi TC); for mRNA recruitment also eIF5, eIF4A, eIF4B, eIF4E-eIF4G;eIF3 (a R731I) (Saccharomyces cerevisiae;Saccharomyces cerevisiae); test: EMSA; conditions: measurement 1; m7G cap; 30 mM HEPES-KOH pH 7.4, 100 mM KOAc, 3 mM Mg(OAc)2, 2 mM DTT, 1 mM GDPNP, 26 C, 2 h; native 4% THEM gel
[16] = tested on: yeast 43S PIC: 40S+eIF1+eIF1A+eIF2 (Met-tRNAi TC); for mRNA recruitment also eIF5, eIF4A, eIF4B, eIF4E-eIF4G;eIF3 (a H725P) (Saccharomyces cerevisiae;Saccharomyces cerevisiae); test: EMSA; conditions: measurement 1; m7G cap; 30 mM HEPES-KOH pH 7.4, 100 mM KOAc, 3 mM Mg(OAc)2, 2 mM DTT, 1 mM GDPNP, 26 C, 2 h; native 4% THEM gel
[17] = tested on: yeast 43S PIC: 40S+eIF1+eIF1A+eIF2 (Met-tRNAi TC); for mRNA recruitment also eIF5, eIF4A, eIF4B, eIF4E-eIF4G;eIF3 (i Q258R) (Saccharomyces cerevisiae;Saccharomyces cerevisiae); test: EMSA; conditions: measurement 1; m7G cap; 30 mM HEPES-KOH pH 7.4, 100 mM KOAc, 3 mM Mg(OAc)2, 2 mM DTT, 1 mM GDPNP, 26 C, 2 h; native 4% THEM gel
[18] = tested on: yeast 43S PIC: 40S+eIF1+eIF1A+eIF2 (Met-tRNAi TC); for mRNA recruitment also eIF5, eIF4A, eIF4B, eIF4E-eIF4G;eIF3 WT (a/b/c/i/g) (Saccharomyces cerevisiae;Saccharomyces cerevisiae); test: EMSA; conditions: measurement 1; m7G cap; 30 mM HEPES-KOH pH 7.4, 100 mM KOAc, 3 mM Mg(OAc)2, 2 mM DTT, 1 mM GDPNP, 26 C, 2 h; native 4% THEM gel
[19] = tested on: yeast 43S PIC: 40S+eIF1+eIF1A+eIF2 (Met-tRNAi TC); for mRNA recruitment also eIF5, eIF4A, eIF4B, eIF4E-eIF4G;eIF3 (a Box37) (Saccharomyces cerevisiae;Saccharomyces cerevisiae); test: EMSA; conditions: measurement 1; m7G cap; 30 mM HEPES-KOH pH 7.4, 100 mM KOAc, 3 mM Mg(OAc)2, 2 mM DTT, 1 mM GDPNP, 26 C, 2 h; native 4% THEM gel
[20] = tested on: yeast 43S PIC: 40S+eIF1+eIF1A+eIF2 (Met-tRNAi TC); for mRNA recruitment also eIF5, eIF4A, eIF4B, eIF4E-eIF4G;eIF3 (a delta8) (Saccharomyces cerevisiae;Saccharomyces cerevisiae); test: EMSA; conditions: measurement 1; m7G cap; 30 mM HEPES-KOH pH 7.4, 100 mM KOAc, 3 mM Mg(OAc)2, 2 mM DTT, 1 mM GDPNP, 26 C, 2 h; native 4% THEM gel
[21] = tested on: yeast 43S PIC: 40S+eIF1+eIF1A+eIF2 (Met-tRNAi TC); for mRNA recruitment also eIF5, eIF4A, eIF4B, eIF4E-eIF4G (Saccharomyces cerevisiae); test: EMSA; conditions: no eIF3; measurement 1; m7G cap; 30 mM HEPES-KOH pH 7.4, 100 mM KOAc, 3 mM Mg(OAc)2, 2 mM DTT, 1 mM GDPNP, 26 C, 2 h; native 4% THEM gel
[22] = no mRNA, ~3 fold weaker than WT, mean of 2, column assigned from text, Met-charged

Kd [1]: 126 nM
Substance: eIF3 variant R731I (eIF3a/Tif32 CTD) (from UniProt P38249 1-964; P06103 1-763; P32497 1-812; P40217 1-347; Q04067 1-274) (complex)

Kd [2]: 41 nM and 52 nM | Kd [1]: 27 nM and 21 nM
Substance: eIF3 variant ∆60 (eIF3c/Nip1 CTD) (from UniProt P38249 1-964; P06103 1-763; P32497 1-752; P40217 1-347; Q04067 1-274) (complex)

Kd [2]: 106 nM and 111 nM | Kd [1]: 87 nM and 98 nM
Substance: eIF3a/b/c sub-complex lacking the i and g subunits (from UniProt P38249 1-964; P06103 1-763; P32497 1-812)

Continued, substance first:

Substance: eIF3a/b/c sub-complex lacking the i and g subunits (eIF3 purified from eIF3i DDKK cells) (from UniProt P38249 1-964; P06103 1-763; P32497 1-812)
fold decrease of apparent affinity against WT eIF3 [3]: 2 fold | fold decrease of apparent affinity against WT eIF3 [4]: 3 fold | Kd [5]: 90 nM | Kd [6]: 109 nM

Substance: initiator tRNAiMet
Kd [7, 22]: 47.8 nM | Kd [8, 22]: 42.3 nM | Kd ([9]; no mRNA, ~2 fold weaker than WT, mean of 2, column assigned from text, Met-charged): 28.1 nM

Substance: mid-AUG model mRNA
binding signal [10]: 97.1 % recruited | binding signal [11]: 97.7 % recruited | binding signal [12]: 96.1 % recruited | binding signal [13]: 98.3 % recruited | binding signal [14]: 96.9 % recruited | binding signal [15]: 93.8 % recruited | binding signal [16]: 93.3 % recruited | binding signal [17]: 97.7 % recruited | binding signal [18]: 98.5 % recruited | binding signal [19]: 96.8 % recruited | binding signal ([7]; measurement 1, m7G cap): 81.6 % recruited | binding signal [20]: 95.9 % recruited | binding signal ([8]; measurement 1, m7G cap): 94.6 % recruited | binding signal [21]: 88.2 % recruited | binding signal ([9]; measurement 1, m7G cap): 77.8 % recruited
